The text below walks through data of US20210277140A1 (University of California, published 2021).

No end group written: not given here.

Test [1] addresses T1, SNAP-Syk tSH2 (mouse, UniProt P48025 1-262). The test can be described thus: liposome-based fluorescence quenching assay: SNAP-505-labelled Syk tSH2 reporter, rhodamine-PE liposomes carrying His10-receptor tail (0 to 500 nM) phosphorylated by His10-Lck Y505F after ATP; Kd ± SE from a one-site specific binding fit. Here is the method:
(§1) Experiments were carried out as previously described (Alvey C M et al., Current Biology 27:2065-2077, 2017). Briefly, proteins were purified using a bacterial expression system. All protein components (1 mg/ml BSA, 100 nM tSH2-Syk SNAP-505, 0 to 500 nM His10-CD3ζ or His10-FcRγ intracellular chain, and 7.2 nM His10-Lck Y505F) were mixed into kinase buffer (50 mM HEPES-NaOH pH 6.8, 150 mM NaCl, 10 mM MgCl₂, and 1 mM TCEP). Liposomes prepared at the following molar ratios: 74.5% POPC (Avanti, Catalog #850457C), 10% DOGS-NTA (Nickel) (Avanti, Catalog #790404C, 0.5% Rhodamine PE (Avanti, Catalog #810150C), and 15% DOPS (Avanti, Catalog #840035C) were added and the mixture was incubated for 40-60 minutes at room temperature, during which the SNAP-505 fluorescence was monitored at 8 s intervals with 504 nm excitation and 540 nm emission. 1 mM ATP was then injected to trigger Lck mediated phosphorylation of CD3ζ or FcRγ. Injection was followed by 5 seconds of automatic shaking of the plate, and the fluorescence was further monitored at 8 s intervals for at least 1 hr. Data were normalized by setting the average fluorescence value of the last 10 data points before ATP addition as 100% and background fluorescence as 0%. […]

The target in test [2] is T1, SNAP-Syk tSH2. The test can be described thus: liposome-based fluorescence quenching (FRET) assay; His10-FcRγ on NiNTA liposomes phosphorylated by Lck, 100 nM SNAP-505 Syk tSH2, receptor titrated 0-500 nM; apparent Kd, one site specific binding fit. The protocol:
as §1

B1: His10-FcRγ (other, human)
chain: HHHHHHHHHHRLKIQVRKAAITSYEKSDGVYTGLSTRNQETYETLKHEKPP
modifications: not fully specified
notes: range 45-85; titrated 0 to 500 nM; also called His10-FcRγ intracellular chain; His10-FcRγ-chain
As for B1, the figures for the Kd with SNAP-Syk tSH2 [1] and in the test with SNAP-Syk tSH2 [2] were 31.2 nM and roughly 30 nM, respectively.
